The results in this text go back to US20240409624A1 (UCB, published 2024).

One may read the EC50 (read off the curve) as the concentration that produces a half-maximal response.

Assay [1] has as its target T1, 1N3 R tau (human, UniProt P10636-4 1-381).
T1 construct: One of the six recombinantly expressed tau isoforms
As to the kind of experiment: flow cytometry, antibody titrated about 3 to 10000 ng/ml on cells with intracellularly expressed tau isoform, geomean AF647 of transfected cells. (In flow cytometry, cells or beads pass a laser one at a time.)

The target in assay [2] is T2, 1N4 R tau (human, UniProt P10636-7 1-412).
T2 construct: One of the six recombinantly expressed tau isoforms
T2 sequence (P10636 other isoform, or with tags, fused parts or gaps limits assumed): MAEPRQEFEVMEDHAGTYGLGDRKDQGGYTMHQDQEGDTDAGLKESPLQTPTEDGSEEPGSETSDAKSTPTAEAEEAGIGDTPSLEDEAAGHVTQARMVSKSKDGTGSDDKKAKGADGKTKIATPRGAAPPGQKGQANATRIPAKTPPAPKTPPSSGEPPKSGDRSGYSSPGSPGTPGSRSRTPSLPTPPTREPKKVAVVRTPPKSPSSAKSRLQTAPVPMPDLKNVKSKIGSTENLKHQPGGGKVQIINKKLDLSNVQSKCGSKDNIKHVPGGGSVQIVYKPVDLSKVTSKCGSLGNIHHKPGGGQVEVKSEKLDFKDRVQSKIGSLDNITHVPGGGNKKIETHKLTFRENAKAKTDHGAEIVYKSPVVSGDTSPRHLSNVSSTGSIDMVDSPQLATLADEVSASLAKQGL
The assay is described as above.

The target in assay [3] is T3, 0N3 R tau (human, UniProt P10636-2 1-352).
T3 construct: Used as recombinant protein (ELISA), overexpressed in cells (flow cytometry, Western blot, immunofluorescence) and native in iPSC derived neurons; also called 3 R tau (iPSC derived neurons express 0N3 R tau)
T3 sequence (P10636 other isoform, or with tags, fused parts or gaps limits assumed): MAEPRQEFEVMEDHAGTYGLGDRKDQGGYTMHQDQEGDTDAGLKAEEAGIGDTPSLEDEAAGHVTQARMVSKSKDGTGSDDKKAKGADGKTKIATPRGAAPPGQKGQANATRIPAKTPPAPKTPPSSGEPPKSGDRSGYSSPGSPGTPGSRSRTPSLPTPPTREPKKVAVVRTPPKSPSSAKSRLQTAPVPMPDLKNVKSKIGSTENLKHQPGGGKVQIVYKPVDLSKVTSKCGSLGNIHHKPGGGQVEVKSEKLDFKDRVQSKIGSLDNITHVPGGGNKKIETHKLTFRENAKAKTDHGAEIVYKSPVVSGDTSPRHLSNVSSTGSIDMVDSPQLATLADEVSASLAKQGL
The description is as above.

The target in assay [4] is T4, 2N3 R tau (human, UniProt P10636-5 1-410).
T4 construct: One of the six recombinantly expressed tau isoforms
T4 sequence (P10636 other isoform, or with tags, fused parts or gaps limits assumed): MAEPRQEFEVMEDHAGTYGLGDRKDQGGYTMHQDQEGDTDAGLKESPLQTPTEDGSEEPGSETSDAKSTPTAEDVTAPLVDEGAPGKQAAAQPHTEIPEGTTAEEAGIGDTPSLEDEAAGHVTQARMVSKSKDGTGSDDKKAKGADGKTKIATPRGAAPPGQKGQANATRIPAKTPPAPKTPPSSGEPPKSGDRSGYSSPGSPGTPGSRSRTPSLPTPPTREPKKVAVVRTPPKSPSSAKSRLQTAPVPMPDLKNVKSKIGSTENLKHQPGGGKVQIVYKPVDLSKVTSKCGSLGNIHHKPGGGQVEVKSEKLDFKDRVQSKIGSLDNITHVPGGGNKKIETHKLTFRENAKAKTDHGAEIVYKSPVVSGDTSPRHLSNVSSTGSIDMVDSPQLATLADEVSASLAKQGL
Described as above.

Assay [5] deals with T5, 2N4 R tau (human, UniProt P10636 2-758).
T5 construct: also called largest human isoform of tau
T5 sequence (P10636 other isoform, or with tags, fused parts or gaps limits assumed): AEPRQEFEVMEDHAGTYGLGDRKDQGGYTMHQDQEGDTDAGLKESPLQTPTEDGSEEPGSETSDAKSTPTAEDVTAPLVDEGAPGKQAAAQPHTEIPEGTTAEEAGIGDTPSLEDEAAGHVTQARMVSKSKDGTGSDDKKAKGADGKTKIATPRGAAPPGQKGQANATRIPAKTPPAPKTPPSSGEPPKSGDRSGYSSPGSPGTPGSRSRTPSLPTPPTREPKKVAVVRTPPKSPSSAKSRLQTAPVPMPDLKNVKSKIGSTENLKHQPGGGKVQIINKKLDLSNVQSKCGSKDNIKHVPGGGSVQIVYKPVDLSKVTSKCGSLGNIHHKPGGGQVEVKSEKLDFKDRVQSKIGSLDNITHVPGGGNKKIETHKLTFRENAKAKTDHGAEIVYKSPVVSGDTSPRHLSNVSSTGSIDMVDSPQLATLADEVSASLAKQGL
Briefly: ELISA, antibody titrated about 3 to 10000 ng/ml on tau isoform coated directly onto the plate, OD 630 nm. For orientation: An ELISA detects its analyte on a solid surface through an enzyme-linked reagent.

Assay [6] addresses T2, 1N4 R tau. As to the kind of experiment: Western blot of lysates of cells overexpressing a single tau isoform, probed with the mouse IgG format. A general note: In western blotting, separated proteins are transferred to a membrane and probed.
Assay [7] has as its target T5, 2N4 R tau. The assay is described as above.
Assay [8] has as its target T1, 1N3 R tau. As to the kind of experiment: ELISA, scFv-Ms-Fc titrated about 3 to 10000 ng/ml on coated tau isoform, OD 630 nm.
The target in assay [9] is T3, 0N3 R tau. The description is as above.
Assay [10] concerns the target T4, 2N3 R tau. Described as above.
In another assay the target is T6, 0N4 R tau (human, UniProt P10636-6 1-383).
T6 construct: Used as recombinant protein (ELISA), overexpressed in cells and native in 10+16 MAPT mutant iPSC derived neurons; also called unmutated 0N4 R tau; 4 R tau (10+16 MAPT mutant neurons express 0N4 R tau)
T6 sequence (P10636 other isoform, or with tags, fused parts or gaps limits assumed, form in doubt): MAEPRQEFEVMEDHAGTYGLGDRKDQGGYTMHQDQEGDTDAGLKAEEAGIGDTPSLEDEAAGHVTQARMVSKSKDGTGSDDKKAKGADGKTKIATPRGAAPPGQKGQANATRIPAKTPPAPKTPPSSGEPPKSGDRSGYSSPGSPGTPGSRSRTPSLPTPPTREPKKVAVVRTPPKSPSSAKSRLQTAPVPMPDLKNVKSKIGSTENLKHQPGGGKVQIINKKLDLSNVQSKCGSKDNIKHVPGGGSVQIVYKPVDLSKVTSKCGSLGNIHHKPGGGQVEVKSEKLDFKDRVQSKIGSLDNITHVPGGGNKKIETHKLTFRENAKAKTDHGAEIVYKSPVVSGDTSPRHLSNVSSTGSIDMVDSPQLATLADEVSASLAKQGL
Briefly: flow cytometry, scFv-Ms-Fc titrated about 3 to 10000 ng/ml on cells transfected with the tau isoform, mean fluorescence of transfected cells.

Assay [11] has as its target T2, 1N4 R tau. Described as above.
Assay [12] concerns the target T5, 2N4 R tau. The assay is described as above.
Assay [13] has as its target T1, 1N3 R tau. As to the kind of experiment: ELISA, antibody titrated about 3 to 10000 ng/ml on tau isoform coated directly onto the plate, OD 630 nm.
The target in assay [14] is T2, 1N4 R tau. The assay is described as above.
In assay [15] the target is T3, 0N3 R tau. Described as above.
Assay [16] concerns the target T5, 2N4 R tau. The description is as above. This is another data set of the same source.
Assay [17] deals with T4, 2N3 R tau. Described as above.
Assay [18] concerns the target T7, 0N4 R tau P301 mutated to alanine (human, UniProt P10636 1-758).
T7 construct: also called P301A
Briefly: flow cytometry on fixed, permeabilised Expi293 cells expressing the mutant, 10 µg/ml VR7082. The procedure: (§1) Upon receipt of the constructs, single constructs were transiently transfected into Expi293 cells (Thermo-Fisher) according to the instructions from the manufacturer. The cells were incubated at 38° C., shaking at 220 RPM, in a humidified 5% CO2 environment. Following a 48 hour incubation, the cells were harvested via centrifugation at 350 G(av) for 10 minutes. The cells were fixed and permeabilized with Invitrogens Fix and Perm kit, according to the instructions from the manufacturers. […] The cells were incubated on ice for 30 minutes before being washed in PBS+1% BSA and resuspended in 50 μl/well.
(§2) The cells were run on an IQue3 and tau containing cells were gated via the alexa-488 fluorescence from HT7 and tau binding assessed via alexa-647 staining. The data was normalised and expressed as a percentage of the binding signal observed for not-mutated tau.

In assay [19] the target is T8, 0N4 R tau G302 mutated to alanine (human, UniProt P10636 1-758).
T8 construct: also called G302A
T8 sequence (P10636 other isoform, or with tags, fused parts or gaps limits assumed, stated change not applied): as the sequence (P10636 other isoform, or with tags, fused parts or gaps limits assumed, form in doubt) above, with G244A counted along it
Described as above. The procedure:
as §1, §2

Assay [20] deals with T1, 1N3 R tau. Briefly: Western blot of lysates of cells overexpressing a single tau isoform, probed with the mouse IgG format.
In assay [21] the target is T2, 1N4 R tau. The description is as above. This is another data set of the same source.
The target of assay [22] is T3, 0N3 R tau. The assay is described as above.
The target of assay [23] is T5, 2N4 R tau. The assay is described as above. The source holds these as a separate data set.
In assay [24] the target is T4, 2N3 R tau. The assay is described as above.

T1 sequence (P10636 other isoform, or with tags, fused parts or gaps limits assumed): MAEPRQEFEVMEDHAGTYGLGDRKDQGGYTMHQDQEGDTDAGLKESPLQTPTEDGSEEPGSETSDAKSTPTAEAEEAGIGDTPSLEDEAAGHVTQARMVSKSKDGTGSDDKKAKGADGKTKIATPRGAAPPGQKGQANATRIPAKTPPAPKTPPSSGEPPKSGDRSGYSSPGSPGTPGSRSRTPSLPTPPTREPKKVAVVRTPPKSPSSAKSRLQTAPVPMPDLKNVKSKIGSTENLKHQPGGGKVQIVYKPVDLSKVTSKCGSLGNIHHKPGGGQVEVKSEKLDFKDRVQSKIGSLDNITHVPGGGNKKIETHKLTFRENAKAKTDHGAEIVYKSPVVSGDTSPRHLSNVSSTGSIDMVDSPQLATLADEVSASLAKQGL
T7 sequence (P10636 other isoform, or with tags, fused parts or gaps limits assumed, stated change not applied): as the sequence (P10636 other isoform, or with tags, fused parts or gaps limits assumed, form in doubt) above, with P243A counted along it

B1: VR7081 rabbit IgG (antibody, V domains shown)
VH: QSLEESGGRLVTPGTPLTLTCTVSGFSLSNYAMIWVRQAPGGGLEWIGTMGTNGRTYYASWAKGRFTISKTSTTMDLSMTSLTAEDTATYFCARDAGITYSTYYFNIWGPGTLVTVSS
VL: AQVLTQTPASVSAAVGGTVSISCQSSPSVLNTNDLSWFQQKPGQPPKVLIYGASTLASGVPSRFKGSGSGTQFTLTISDVQCDDAATYYCAGGYDVNIDIYGFGGGTEVVVK
notes: Cloned and tested as full-length rabbit IgG (kappa light chain); also called clone 14; 3 R-specific antibody
In the case of B1, the “EC50 (read off the curve)” value was roughly 1 µg/mL in the assay with 1N3 R tau [1], roughly 0.7 µg/mL with 0N3 R tau [3] and roughly 0.9 µg/mL with 2N3 R tau [4]. Besides, the binding result with 1N4 R tau [2] and in the assay with 2N4 R tau [5] was “no binding (tested: 10000 ng/ml)” throughout.

B2: VR7081 formatted as Mouse IgG (antibody, V domains shown)
VH: B1 VH
VL: B1 VL
notes: also called VR7081 mouse chimeric antibody
For the molecule B2, the binding result with 1N4 R tau [6] and in the assay with 2N4 R tau [7] was “no binding” throughout.

B3: VR7082 scFv-Ms-Fc (Fc fusion)
scFv: MAQSVEESGGRLVTPGTPLTLTCTVSGIDLSNYAMIWVRQAPGEGLEYIGIISSTGNTFYATWAKGRFTISKTSTTVDLKITSPTAEDTATYFCARDTNSDSHYGWEAFNIWGPGTLVTVSSGGGGSGGGGSGGGGSGGGGSAVVLTQTPASVEAAVGGTVSINCQASEDIESYLAWYQQKPGQRPKLLIYRASTLASGVSSRFKGSGSGTEYTLTISGVECADAATYYCQEGYSIHVDNVFGGGTEVVVK
notes: also called scFv mouse Fc conversion of VR7082; not shown: mouse Fc
Turning to B3, the binding result with 1N3 R tau [8], with 0N3 R tau [9] and with 2N3 R tau [10] was “no binding (tested: 10000 ng/ml)” each time. Moreover, the figures for the “EC50 (read off the curve)” value in the assay with 0N4 R tau, with 1N4 R tau [11] and in the assay with 2N4 R tau [12] were roughly 0.6 µg/mL, roughly 0.8 µg/mL and roughly 0.9 µg/mL, respectively.

B4: VR7082 rabbit IgG (antibody, V domains shown)
VH: QSVEESGGRLVTPGTPLTLTCTVSGIDLSNYAMIWVRQAPGEGLEYIGIISSTGNTFYATWAKGRFTISKTSTTVDLKITSPTAEDTATYFCARDTNSDSHYGWEAFNIWGPGTLVTVSS
VL: AVVLTQTPASVEAAVGGTVSINCQASEDIESYLAWYQQKPGQRPKLLIYRASTLASGVSSRFKGSGSGTEYTLTISGVECADAATYYCQEGYSIHVDNVFGGGTEVVVK
notes: Cloned and tested as full-length rabbit IgG (kappa light chain); also called clone 3; VR7082-RbIgG
In the case of B4, the binding result in the assay with 1N3 R tau [13] is reported as “no binding (tested: 10000 ng/ml)”; with 1N4 R tau [14], “binds”; with 0N3 R tau [15], “no binding (tested: 10000 ng/ml)”; with 2N4 R tau [16], “binds”; in the assay with 2N3 R tau [17] it was “no binding (tested: 10000 ng/ml)”; in [18] it was “binds”. Besides, the binding result in assay [19] is given as “binds”.

B5: VR7082 formatted as Mouse IgG (antibody, V domains shown)
VH: B4 VH
VL: B4 VL
notes: also called VR7082 mouse chimeric antibody
B5: the binding result was “no binding” with 1N3 R tau [20]; “binds” in the assay with 1N4 R tau [21]; “no binding” in the assay with 0N3 R tau [22]; “binds” in the assay with 2N4 R tau [23]; “no binding” in the assay with 2N3 R tau [24].
